Data reported in the supplement of paper PMC12764529.
± gives the half width of the 95% confidence interval.

Tests used:
[1] = folding stability dG unfold (combined trypsin and chymotrypsin); higher = more stable
Summary of the method: (§1)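 Mini-proteins designed to be under 80 residues and free of cysteine were carried in a PA-tagged cDNA display construct and digested with trypsin and with chymotrypsin. Each protease was applied at 11 threefold-diluted concentrations, alongside a no-protease condition, before sequencing. K50 came from Bayesian fitting of the sequencing counts, and unfolding free energy was obtained by comparing it with a sequence-predicted unfolded-state K50 and a shared folded-state K50, for each protease separately or for both together. Designs were retained only if their AlphaFold2 dimer inter-PAE exceeded 15.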

[2] = folding stability dG unfold from chymotrypsin proteolysis; higher = more stable
Summary of the method: as §1

[3] = folding stability dG unfold from trypsin proteolysis; higher = more stable
Summary of the method: as §1

Sequence | folding stability dG unfold [1] | folding stability dG unfold [2] | folding stability dG unfold [3]
SAGGSLDVKIEITPPDGSTRTLDIEVESEEEAIKIAEELQKELGEGNTLKVRITYPGPKSPVELELKSAGGS [r8_107_JUSTAS] | 2.2 ± 0.065 kcal/mol | 2.51 ± 0.046 kcal/mol | 1.53 ± 0.04 kcal/mol
SMLIVAEGDTVTVELIATYTVVERDPDDPNRYTLRAFPLPLTFTVDPNDPEALRRFLEAAPPGFTPVIVGSA [r9_476_TrMRF] | 3.17 ± 0.13 kcal/mol | 3.43 ± 0.039 kcal/mol | 2.62 ± 0.092 kcal/mol
SAGGSPFKKETFEFENVKVEVYRLPGPYALALLEVEVSGEPVYYVAVFKLGPDNKLEVVSFGPVDLSAGGSA [r2_171_TrMRF] | 2.78 ± 0.053 kcal/mol | 2.85 ± 0.031 kcal/mol | 2.63 ± 0.054 kcal/mol
SAGGSAGGSAGGDKNDLSPGATISTYTNPGSFTVTLPTGETVTLPKTVTTTVTFFDSTNSAGGSAGGSAGGS [r10_643_JUSTAS] | 0.227 ± 0.08 kcal/mol | 0.104 ± 0.14 kcal/mol | 0.254 ± 0.072 kcal/mol
SAGGSAGGSAGMLETIELPDGKRVRYDPVTGEWFVELDPELEEEVRERLDPDLPVRFEEVSAGGSAGGSAGG [r11_374_JUSTAS] | 1.62 ± 0.057 kcal/mol | 1.54 ± 0.063 kcal/mol | 1.74 ± 0.081 kcal/mol
SAGGSAGGSAGGIDFPEKGFVVVVTFPDGSKAEFEVPSDRPLVLNETAGDVTVDEIREKDSAGGSAGGSAGG [r7_542_TrMRF] | 0.458 ± 0.13 kcal/mol | -0.125 ± 0.18 kcal/mol | 0.955 ± 0.14 kcal/mol
SAGGGMAPDTPVTVRIEITLPDGTRRVLDIPGRAGDPALLEAIAAELREEGYEVREIRPVEGRIVVASAGGS [r8_497_JUSTAS] | 2.53 ± 0.081 kcal/mol | 2.81 ± 0.08 kcal/mol | 1.96 ± 0.028 kcal/mol
GMIVEIVESPEGTVTLYEVLLPGGTPILVGAADEEKLRERVAKELGVSFEKLKITKTTTLSPEELAALLAAS [r1_119_JUSTAS] | 1.66 ± 0.14 kcal/mol | 1.73 ± 0.053 kcal/mol | 1.4 ± 0.02 kcal/mol
SAGGSASSSEKIRITYLKDGVEYEVTFPLVELVTDPNTGVTTVTLPPEFKELFPGPITVTEVEIPPSAGGSA [r15_710_JUSTAS] | 1.99 ± 0.032 kcal/mol | 2.267 ± 0.019 kcal/mol | 1.42 ± 0.035 kcal/mol
SAGGSAGGIWIPVPDGYWIKIEMPDNNGEPKATHEMDSPADVEEALEEMPPDNLTKVEIWPLPDSAGGSAGG [r6_705_TrROS] | 0.532 ± 0.71 kcal/mol | 0.902 ± 0.21 kcal/mol | 0.875 ± 0.16 kcal/mol
SAGGSAGGSAGGDITIDTEQMPNGWHTVKVRLPNGKPIAPVPMPPGMTPEEAVKRALDRLSAGGSAGGSAGG [r7_444_TrROS] | 0.0336 ± 0.12 kcal/mol | -0.407 ± 0.25 kcal/mol | 0.0871 ± 0.065 kcal/mol
SAGGSELTLTVKVTVTVEVNGKTFTVEATLTLRFRPAPPPPKVRLERDADGNLRVTDANGKTRELRFSAGGS [r16_136_TrROS_Hall] | 2.61 ± 0.23 kcal/mol | 2.8 ± 0.1 kcal/mol | 2.42 ± 0.17 kcal/mol
SAGGMKKYLLTLNVTLERPDSEESITLTKEVDSLEEAEKLKEEIEKKLKEEYPGRISFDVTIEEIEESAGGS [r16_475_JUSTAS] | 4.13 ± 0.12 kcal/mol | 4.15 ± 0.076 kcal/mol | 3.72 ± 0.1 kcal/mol
SAGGIELKINIQMPAEEAVEFIRNFIEELGYEIEDIEVERDPENGMVSVPIEFEIKPVPPVDPEDQKSAGGS [r16_584_TrROS] | 0.315 ± 0.19 kcal/mol | 0.166 ± 0.26 kcal/mol | 0.144 ± 0.076 kcal/mol
SAGGSAGGSAGGKLPPGQPIKATIEIYIFMISYDGGEPKIHEFPITIEHTFRLPDPDALSAGGSAGGSAGGS [r10_745_TrROS] | 3.42 ± 0.17 kcal/mol | 3.9 ± 0.091 kcal/mol | 2.14 ± 0.086 kcal/mol
SAGGSAPPNIVRPYVRPFLIYNPNGEPAALGELVIFEAPEGRLILLRLRSLENGEELELPFLYPGESAGGSA [r15_819_TrMRF] | 3.25 ± 0.037 kcal/mol | 3.453 ± 0.02 kcal/mol | 2.71 ± 0.071 kcal/mol
SAGGEDELRPITPEELKALFDRLAAAHGLESEILEVEEPEDVVIVTARIRHGDTVLEVTVAFPVAKDPSAGG [r13_652_TrMRF] | 2.91 ± 0.15 kcal/mol | 2.97 ± 0.1 kcal/mol | 2.65 ± 0.14 kcal/mol
SAGGSAGGSMEFVEIEIEKELETEVSPDGTTTTRYRVPDGSILVVTTTHPPDGVPTPTVTLVASAGGSAGGS [r20_240_JUSTAS] | 1.08 ± 0.045 kcal/mol | 0.944 ± 0.075 kcal/mol | 1.16 ± 0.021 kcal/mol
SAGGSAGGSAGGSVVTRLPNGSYRYTVTRVSFDPKTGTWSSETTVLTVPPDRPVEIPPGSAGGSAGGSAGGS [r4_48_JUSTAS] | 1.89 ± 0.096 kcal/mol | 2.26 ± 0.11 kcal/mol | 1.14 ± 0.049 kcal/mol
SAGGSAGGSAEPEKKYNVKVTFYNPNTGELVLEAEFPNMTIDEVKELAKKLGLEIVKIEVGSAGGSAGGSAG [r3_423_TrMRF] | 4.48 ± 0.13 kcal/mol | 4.43 ± 0.061 kcal/mol | 4.37 ± 0.27 kcal/mol
SAGGSAGGSAGLKPGDEVLVISIEVETEIKLEEKDGKLTLETETKVKITITRVKLPEGAESAGGSAGGSAGG [r17_186_TrROS_Hall] | 3.82 ± 0.25 kcal/mol | 3.01 ± 0.21 kcal/mol | 3.79 ± 0.22 kcal/mol

Sequence | folding stability dG unfold [1] | folding stability dG unfold [2] | folding stability dG unfold [3]
SAGGSKIKELLDAIKKAIEEGKEEVTIEVTLPNGSKIKFYPDGTIEITNKNGEKKTIKIKADDIKPSAGGSA [r2_97_TrROS_Hall] | 1.99 ± 0.27 kcal/mol | 1.44 ± 0.1 kcal/mol | 2.29 ± 0.23 kcal/mol
SAGGSAGGSAGGSGQEIPFMLIIKDPDGELDYIIQIEMRRVPNGGVDIEITEIIPAKDISAGGSAGGSAGGS [r4_117_TrROS] | 1.77 ± 0.1 kcal/mol | 1.76 ± 0.039 kcal/mol | 1.55 ± 0.1 kcal/mol
SAGGSAGGSAGKKTLPTYDPKKGKISLIVIEDKEGKEIVFEAFGDGKEFIEAAKEFEKKISAGGSAGGSAGG [r11_119_TrMRF] | -0.0388 ± 0.099 kcal/mol | 0.182 ± 0.064 kcal/mol | -0.463 ± 0.12 kcal/mol
SAGGWLWVRTNGRIFVIEIKTEMKWEYDPGDPGQWRMDMEPEIEVRPIPPDDIKPLPPVDEDDPENKSAGGS [r16_395_TrROS] | 1.87 ± 0.32 kcal/mol | 2.09 ± 0.27 kcal/mol | 1.68 ± 0.13 kcal/mol
SAGGSAGGSAGLDPDDPNYKIIPMTMEIKVEEYRMDPDGKMERQEQEHPIPILIIVPPGDSAGGSAGGSAGG [r17_523_TrROS] | 0.365 ± 0.22 kcal/mol | -0.37 ± 0.28 kcal/mol | 0.933 ± 0.074 kcal/mol
SAGGSAGGSMIGTADGTPVPFEVTHAEVYEVTLPNGEKYYLIKAYDPSTGKYFVALIPAKDIASAGGSAGGS [r12_823_TrMRF] | 2.8 ± 0.1 kcal/mol | 2.84 ± 0.052 kcal/mol | 2.77 ± 0.11 kcal/mol
SELAEEAAKRAREAFAEEHPGWDVLSVEVEVEKDPNNDVVTVTVKLTLRRESPEPREEVLEEEVTLTFPLKS [r1_181_JUSTAS] | 2.91 ± 0.067 kcal/mol | 3.24 ± 0.043 kcal/mol | 2.14 ± 0.05 kcal/mol
SAGGNPASATVTINEDILVNGSPEEARALVEARAKAEGITITDVTITPVPGDPSVYRVSATFSKTLASAGGS [r8_479_JUSTAS] | 1.87 ± 0.15 kcal/mol | 1.9 ± 0.1 kcal/mol | 1.91 ± 0.038 kcal/mol
SAGGMELFELEFEAEITPLEEPDKPVPVKIRILKRVEPVPNEPGFKVHYRALLENEEGVVPFEFTLDSAGGS [r16_300_TrMRF] | 1.42 ± 0.085 kcal/mol | 1.74 ± 0.085 kcal/mol | 0.998 ± 0.055 kcal/mol
SAGGSAGGSAGLKVIEADTLEEVLEAIKEAPKDEPLLLILRNPSTGVDSVLLFDGDKIVLGGSAGGSAGGSA [r18_407_TrMRF] | 0.909 ± 0.06 kcal/mol | 0.595 ± 0.09 kcal/mol | 1.09 ± 0.029 kcal/mol
SAGGSAGGSAGWFTVTMMFLFPNGWAIKITWTFRMDENGNLKLEWEVEIEPVPPLKPGDPSAGGSAGGSAGG [r11_728_TrROS] | > 6 kcal/mol | 6.21 ± 0.35 kcal/mol | 4.38 ± 0.51 kcal/mol
SAMKKVEIEIEVVEVDGELYILIKIKAETPEEVKEAAEKLLKELGLPPEAEVEVVEKDGEVYILIRLKPSAG [r14_804_TrROS_Hall] | 4.17 ± 0.13 kcal/mol | 4.53 ± 0.05 kcal/mol | 3.08 ± 0.082 kcal/mol
SAGMVIVIDKKKKKIYIFAPSKEMAEKIAKELNLKDVKVYEKGTSIEELLKKHPDVEKVIVLPAEELKSAGG [r19_270_TrROS_Hall] | 2.65 ± 0.27 kcal/mol | 2.87 ± 0.056 kcal/mol | 1.45 ± 0.049 kcal/mol
SAGGSAGGSAGGMKKKIPNKTLTIEIEVKLENGLYLKMKITVNKNGEIKIEIEVIPKEDLSAGGSAGGSAGG [r7_214_TrROS_Hall] | 3.08 ± 0.14 kcal/mol | 3.33 ± 0.073 kcal/mol | 2.57 ± 0.12 kcal/mol
SAGGSAGGSAGGIHIPAYEAIDFAKENADNGEPVPIEVHNPGNGKPEEREITPDDLDKISAGGSAGGSAGGS [r10_779_TrROS] | 0.454 ± 0.06 kcal/mol | 0.428 ± 0.016 kcal/mol | 0.402 ± 0.039 kcal/mol
SAGGSAGGSAGTLRLEVELKLRVRNPATREWQEVTLRLEVEFEPAPPVLVRDANGRLLLLSAGGSAGGSAGG [r11_307_TrROS_Hall] | 2.98 ± 0.082 kcal/mol | 3.434 ± 0.021 kcal/mol | 1.68 ± 0.024 kcal/mol
SLPYTPSTAELTLTLPGGEVKVKANVYTLPDGSTITIATFPDGSVAVYDPSLGRLVLYDPSTGKPIAVLGSA [r9_970_TrMRF] | 2.32 ± 0.028 kcal/mol | 2.173 ± 0.013 kcal/mol | 2.41 ± 0.038 kcal/mol
SAGGSAGGSAGGMYKVTITVGGKEITIEVSEEELEELLKALEDEGYEIKEIRVEKLPEESAGGSAGGSAGGS [r10_405_TrROS_Hall] | 3.63 ± 0.11 kcal/mol | 3.57 ± 0.097 kcal/mol | 3.91 ± 0.23 kcal/mol
SAGGSAGGSAGGSNIEIEYNPNMMTIRIEPGDKPIEIQIKSPMTMEEFIKTALDKFPGISAGGSAGGSAGGS [r4_191_TrROS] | 0.415 ± 0.28 kcal/mol | 0.224 ± 0.18 kcal/mol | 0.394 ± 0.061 kcal/mol
SAGGSAGGSAGMKITVTITTTTTVSVEPPESSAAVGPVVYRQTLTLNLSPEEAAALLKKSSAGGSAGGSAGG [r17_283_JUSTAS] | 1.25 ± 0.11 kcal/mol | 1.16 ± 0.14 kcal/mol | 1.17 ± 0.035 kcal/mol
SGMMNNTTITVTDSEPLPDGSVLTNALTFTSSSAGISSPLDLSLSKTPVSSSTTYTNNGVAPASISLNSLSA [r9_1113_JUSTAS] | 0.697 ± 0.049 kcal/mol | 0.611 ± 0.075 kcal/mol | 0.678 ± 0.019 kcal/mol
